The source of these data is PMC11059001.

Test [1] has as its target complement C1q (human) (UniProt P02745). The test is described as follows: MST; IgG incubated with fluorescently labelled C1q (40 nM) alone, no competitor; 50 mM Hepes, 150 mM NaCl, 2 mM CaCl2, 0.05% Tween 20, pH 7.4; LED power 60%, MST power 50%.
For test [2] the target is unchanged. The test is described as follows: MST; competitive binding: IgG with fluorescently labelled C1q (40 nM) in the presence of 20 µM TsCRT^Δ, a mutant or P^TsCRT; 50 mM Hepes, 150 mM NaCl, 2 mM CaCl2, 0.05% Tween 20, pH 7.4; LED power 60%, MST power 50%.
For test [3] the target is unchanged. The test is described as follows: MST; fluorescently labelled C1q (RED-NHS) 40 nM; TsCRT, TsCRT^Δ, mutants or P^TsCRT gradient-diluted; 50 mM Hepes, 150 mM NaCl, 2 mM CaCl2, 0.05% Tween 20, pH 7.4; Monolith NT.115, LED power 20%, MST power 50%.
Test [4] has the same target. Description: MST; with 20 uM TsCRT^Δ I140A/G142A competitor.
Test [5] shares this target. The test is described as follows: MST; with 20 uM TsCRT^Δ H46A/K47A/D49A competitor.
Test [6] has the same target. The test is described as follows: MST; with 20 uM TsCRT^Δ P143A/E144A competitor.

What is called Kd is the free concentration of one partner at which half of the binding sites on the other are occupied at equilibrium, for simple one-to-one binding.

complement C1q (human), sequence (P02745 23-245, chain 1 of 3): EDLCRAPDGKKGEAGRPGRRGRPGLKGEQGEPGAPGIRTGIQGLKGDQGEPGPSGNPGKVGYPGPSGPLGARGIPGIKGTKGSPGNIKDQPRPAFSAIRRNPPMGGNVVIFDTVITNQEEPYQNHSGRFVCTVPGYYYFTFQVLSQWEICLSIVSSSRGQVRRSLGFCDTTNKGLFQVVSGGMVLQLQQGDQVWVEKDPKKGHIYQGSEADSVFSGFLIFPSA
complement C1q (human), sequence (P02746 28-253, chain 2 of 3, further chain): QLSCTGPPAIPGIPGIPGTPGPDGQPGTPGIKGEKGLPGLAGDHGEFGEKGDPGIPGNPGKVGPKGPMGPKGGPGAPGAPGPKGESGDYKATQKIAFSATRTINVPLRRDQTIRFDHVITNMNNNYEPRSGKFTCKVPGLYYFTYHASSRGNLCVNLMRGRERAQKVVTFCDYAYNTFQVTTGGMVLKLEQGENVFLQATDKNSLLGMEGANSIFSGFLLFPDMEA
complement C1q (human), sequence (P02747 29-245, chain 3 of 3, further chain): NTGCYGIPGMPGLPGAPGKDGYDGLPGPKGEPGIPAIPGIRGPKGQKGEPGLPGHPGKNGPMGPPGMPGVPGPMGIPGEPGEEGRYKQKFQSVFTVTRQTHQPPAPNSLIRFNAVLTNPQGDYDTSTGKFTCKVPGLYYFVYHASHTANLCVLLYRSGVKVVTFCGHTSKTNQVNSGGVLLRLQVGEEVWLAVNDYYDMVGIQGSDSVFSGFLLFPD

Consider human IgG (antibody), for which, in test [1], the Kd stood at 0.14 µM. In test [2], the KD of C1q-IgG with P^TsCRT (20 µM) was 172 µM, the KD of C1q-IgG with TsCRT^Δ (20 µM) was 409 µM and the KD of C1q-IgG with the mutant D129A turned out to be 0.32 µM.
As to “truncated Trichinella spiralis calreticulin TsCRT^Δ (22-209, GSG linker, 305-364) (domain or fragment)”, the Kd in test [3] was 9.03 µM.
In the case of “Trichinella spiralis calreticulin, full-length (natural protein)”, the Kd in test [3] was found to be 258 µM.
Turning to “TsCRT^Δ mutant D129A (domain or fragment)”, in test [3], the Kd was 124 µM.
In test [3], “TsCRT^Δ mutant I140A/G142A (domain or fragment)” gave a Kd of 54.4 µM.
Regarding “TsCRT^Δ mutant P143A/E144A (domain or fragment)”, the Kd in test [3] came out at 66.8 µM.
For “TsCRT^Δ mutant H46A/K47A/D49A (domain or fragment)”, the Kd in test [3] was determined as 54.5 µM.
With human IgG, the equilibrium dissociation constant (Kd) in test [4] stood at 5.51 µM; in test [5], 3.94 µM; in test [6] it was 4.18 µM.
